In patent publication US20220025406 one finds activity data, which are given here for four substances.

Experiment in all cases: cell_activity
The subject of data set [1] is Sleeping Beauty transposase SB100X. Conditions: excision in HeLa, 3 of 21 clones.
Data set [2] relates to phiC31 integrase (Streptomyces phage phiC31?). Particulars: HeLa CI.24.22, 4 of 24 clones positive.
Data set [3] deals with gp3-phiC31 integrase fusion (Streptomyces phage phiC31?). Conditions: HeLa CI.24.22.21.3, attL x attR recombination, 13 of 27 clones.
The subject of data set [4] is hyperactive piggyBac transposase (HAhyPBase). Particulars: excision in HeLa (step 1 and step 3 both 17%); 46% in hiPS cells (Table 17).

Regarding “Sleeping Beauty ITRs flanking puro-delta-tk”, the activity in data set [1] stood at 14%. On to phiC31 attB (pEP24) x attP (pEP28), for which the activity in data set [2] worked out at 16%. On to phiC31 attL (genomic) x attR (pEP50), for which, in data set [3], the activity was 48%. In data set [4], piggyBac ITRs flanking puro-delta-tk had an activity of 17%.
